Measured values: publication PMC13376213, “Systematic discovery of motif-based interactions of the auxiliary domains of USP family deubiquitinases” (Nature Communications, 2026)

molecular target: CYLD CAP-Gly1 domain, GST-tagged (UniProt Q9NQC7); assay: peptide SPOT array alanine scanning; settings: parent: est. 0; read off a plot

Row | Substance | other: signal change (%)
1 | RBM25_(558-573) peptide (from UniProt P49756) A560 (replacement residue not printed) | -25
2 | RBM25_(558-573) peptide (from UniProt P49756) A569 (replacement residue not printed) | -60

molecular target: CYLD CAP-Gly2 domain, GST-tagged (UniProt Q9NQC7); assay: peptide SPOT array alanine scanning; settings: parent: est. 0; read off a plot

Row | Substance | other: signal change (%)
3 | FBXO46_(168-183) peptide L169A | -70
4 | FBXO46_(168-183) peptide L170A | -70
5 | FBXO46_(168-183) peptide L178A | -65
6 | FBXO46_(168-183) peptide R182A | -85
7 | FBXO46_(168-183) peptide V172A | -75
8 | FBXO46_(168-183) peptide E174A | -80
9 | FBXO46_(168-183) peptide D168A | 150
10 | FBXO46_(168-183) peptide A183 (replacement residue not printed) | -55
11 | FBXO46_(168-183) peptide Q181A | 0
12 | FBXO46_(168-183) peptide V179A | -80
13 | FBXO46_(168-183) peptide A177 (replacement residue not printed) | -80
14 | FBXO46_(168-183) peptide E180A | -75
15 | FBXO46_(168-183) peptide V176A | -85
16 | FBXO46_(168-183) peptide A173 (replacement residue not printed) | -75
17 | FBXO46_(168-183) peptide S171A | -70
18 | FBXO46_(168-183) peptide M175A | -90

molecular target: USP22 zf-UBP domain, tag cleaved (for FP) (human) (UniProt Q9UPT9); assay: fluorescence polarisation; saturation or displacement not stated for this experiment; 50 mM phosphate buffer pH 7.4, room temperature; settings: not given

Row | Substance | Kd [µM]
19 | ATXN7_(84-105) peptide (from UniProt O15265 84-105) | 58

molecular target: FITC-APBA2 327-338 peptide (human); assay: fluorescence polarisation; saturation: serial dilution of the protein domain, 10 nM FITC-labelled peptide; 50 mM phosphate buffer pH 7.4 with DTT; room temperature; three technical replicates; quadratic fit; settings: not given

Row | Substance | Kd [µM]
20 | USP33 zf-UBP domain (from UniProt Q8TEY7 1-942) (domain or fragment) | 8.69
21 | USP20 zf-UBP domain (from UniProt Q9Y2K6 1-914) (domain or fragment) | 2.91
22 | USP20 zf-UBP domain E55K/D59R (from UniProt Q9Y2K6 1-914) (domain or fragment) | 388

molecular target: FITC-ATXN7L1 36-57 peptide (human); assay: as above; settings: not given

Row | Substance | Kd [nM]
23 | USP22 zf-UBP domain (from UniProt Q9UPT9 1-525) (domain or fragment) | 1000

molecular target: FITC-GPR137B 348-362 peptide (human); assay: as above; settings: not given

Row | Substance | Kd [µM]
24 | USP20 DUSP2 domain N805A (from UniProt Q9Y2K6 1-914) (domain or fragment) | 140
25 | USP20 DUSP2 domain K833E/K835E (from UniProt Q9Y2K6 1-914) (domain or fragment) | 293
26 | USP20 DUSP2 domain (from UniProt Q9Y2K6 1-914) (domain or fragment) | 5.14

molecular target: FITC-HIF1A 568-581 peptide (human); assay: as above; settings: not given

Row | Substance | Kd [µM]
27 | USP33 DUSP2 domain (from UniProt Q8TEY7 1-942) (domain or fragment) | 31.3
28 | USP33 DUSP2 domain K863E/K865E (from UniProt Q8TEY7 1-942) (domain or fragment) | 319
29 | USP33 DUSP2 domain N835A (from UniProt Q8TEY7 1-942) (domain or fragment) | 353

molecular target: FITC-ORAI1 48-63 peptide (human); assay: as above; settings: not given

Row | Substance | Kd [µM]
30 | USP11 DUSP-UBL tandem domain (from UniProt P51784 1-963) (domain or fragment) | 294

molecular target: USP20 DUSP2 domain, tag cleaved (for FP) (human); assay: fluorescence polarisation; displacement: unlabeled peptide titrated into the domain (at two-fold the KD of the FITC-labeled peptide) with 10 nM FITC-labeled peptide; 50 mM phosphate buffer pH 7.4, DTT, room temperature; estimated KD; settings: not given

Row | Substance | Kd [µM]
31 | HIF1A_(564-581) peptide L574A (from UniProt Q16665 564-581) | 89
32 | HIF1A_(564-581) peptide D571K (from UniProt Q16665 564-581) | 85
33 | HIF1A_(564-581) peptide, wild type, unlabeled (from UniProt Q16665 564-581) | 19
34 | HIF1A peptide hydroxylated at P564 | 26

molecular target: USP33 DUSP2 domain, tag cleaved (for FP) (human) (UniProt Q8TEY7); assay: as above; settings: not given

Row | Substance | Kd [µM]
35 | HIF1A_(564-581) peptide L574A (from UniProt Q16665 564-581) | > 200
36 | HIF1A_(564-581) peptide F572A (from UniProt Q16665 564-581) | > 900
37 | HIF1A_(564-581) peptide D571K (from UniProt Q16665 564-581) | 145
38 | HIF1A_(564-581) peptide, wild type, unlabeled (from UniProt Q16665 564-581) | 1.5
39 | HIF1A peptide hydroxylated at P564 | 7

molecular target: USP33 zf-UBP domain, tag cleaved (for FP) (human) (UniProt Q8TEY7); assay: as above; settings: not given

Row | Substance | Kd [µM]
40 | APBA2_(327-338) peptide N334A (from UniProt Q99767 327-338) | 112
41 | APBA2_(327-338) peptide, wild type, unlabeled | < 8
42 | APBA2_(327-338) peptide R330A (from UniProt Q99767 327-338) | > 500

molecular target: USP20 DUSP2 domain (human) (UniProt Q9Y2K6); assay: fluorescence polarisation; displacement: serial dilution of the unlabelled peptide against the domain (at two-fold the KD of the FITC-labelled peptide) in complex with 10 nM FITC-labelled peptide; 50 mM phosphate buffer pH 7.4; room temperature; three technical replicates; sigmoidal dose-response fit; settings: not given

Row | Substance | Kd [µM]
43 | HIF1A 564-581 F572A peptide | 589

molecular target: USP33 DUSP2 domain (human) (UniProt Q8TEY7); assay: as above; settings: not given

Row | Substance | Kd [µM]
44 | HIF1A 564-581 F572A peptide | 930
